Patent US20230218519A1, “FLUID GEL COMPOSITIONS” (The University of Birmingham, priority 2020, published 2023)

Tests used:
fibrin gel = assay: Matrix breakdown assay (fibrin gel); assay type: biochemical; conditions: fibrin gel 8.5 mg/ml, 60° C., images at various timepoints
Protocol: • Add proteinase K (10 mg) to PBS to make a total volume of 1 ml. • Mix well on a vortex mixer until dissolved.
• Add 0.9 ml of 3% v/v PEG-DA fluid gel prepared according to Example 5.3 to an Eppendorf. • To each gel add 0.1 ml of active in PBS. • Mix well using a vortex mixer. • Refrigerate for 24 hours before testing.
• 0.5 ml of fibrin gel (8.5 mg/ml) was formed in the wells of a 24 well plate. • 0.5 ml of PBS was added to each well. • 0.1 ml of fluid gel containing active was added to a trans-well insert and placed above the fibrin gel. • Samples were incubated at 60° C. to activate the proteinase K. • Images were taken at various timepoints and compared to (a) the control wells containing only fibrin gel+PBS; and (b) wells containing fibrin gel+proteinase k (no fluid gel carrier).

[1] = Release assay from PEG-DA fluid gel (trans-well, UV/Vis); assay type: physicochemical; conditions: 3% v/v PEG-DA fluid gel (Example 5.3, 500 rpm), into PBS at 37° C., 5 hrs
Protocol: • Active amounts: […] • Standard concentrations of active in PBS were prepared. • Standards were pipetted into a quartz cuvette (1 mm pathlength). • UV/Vis spectroscopy was used to measure absorbance between 200 and 700 nm wavelength. • Curves were plotted and used to determine standard curves which were used to determine concentrations. • 0.5 ml PBS was added to the well of a 24 well plate. • The PBS was incubated at 37° C. to equilibrate. • 0.1 ml of the fluid gel containing active was placed in a trans-well insert. • The trans-well insert was placed into a well containing PBS. • After a given time period the trans-well insert was removed and placed in a fresh well of PBS. • The release media was then removed and analysed using […] spectroscopy. Concentrations were derived from the standard curves and cumulative release plotted as a function of time.

B1: proteinase K only: extracellular matrix remodelling agent, a proteinase (protein, UniProt P06873 106-384, looked up)
Proteinase K: AAQTNAPWGLARISSTSPGTSTYYYDESAGQGSCVYVIDTGIEASHPEFEGRAQMVKTYYYSSRDGNGHGTHCAGTVGSRTYGVAKKTQLFGVKVLDDNGSGQYSTIIAGMDFVASDKNNRNCPKGVVASLSLGGGYSSSVNSAAARLQSSGVMVAVAAGNNNADARNYSPASEPSVCTVGASDRYDRRSSFSNYGSVLDIFGPGTSILSTWIGGSTRSISGTSMATPHVAGLAAYLMTLGKTTAASACRYIADTANKGDLSNIPFGTVNLLAYNNYQA
Fibrin gel
  fibrin gel break down: faster
[1]
  release of active agent from fluid gel: able to release
